Consider 1 substance from publication doi:10.1101/2022.12.03.518990.

The target in assay [1] is GMPCPP-stabilized microtubules (TAMRA-labeled, polymerized from bovine brain tubulin) (bovine) (UniProt Q6B856). The assay can be described thus: single-molecule TIRF microscopy, dwell times.
The target is the same in assay [2]. The assay can be described thus: single-molecule TIRF microscopy, dwell times. This is another data set of the same source.

Read-outs that look alike come from different tables or passages of the source.

Chain of UniProt Q6B856 (Q6B856 whole entry, looked up): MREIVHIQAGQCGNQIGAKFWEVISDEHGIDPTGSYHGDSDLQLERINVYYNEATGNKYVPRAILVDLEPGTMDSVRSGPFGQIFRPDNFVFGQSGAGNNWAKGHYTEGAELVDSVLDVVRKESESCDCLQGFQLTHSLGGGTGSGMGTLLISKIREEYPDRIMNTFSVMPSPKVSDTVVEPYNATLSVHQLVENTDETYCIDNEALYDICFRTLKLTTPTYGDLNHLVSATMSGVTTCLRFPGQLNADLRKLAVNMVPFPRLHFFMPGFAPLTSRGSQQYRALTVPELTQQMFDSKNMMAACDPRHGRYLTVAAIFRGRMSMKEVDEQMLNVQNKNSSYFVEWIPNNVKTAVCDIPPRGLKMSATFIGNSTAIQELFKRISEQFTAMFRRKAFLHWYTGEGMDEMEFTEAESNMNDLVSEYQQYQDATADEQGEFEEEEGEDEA

As to “His-EGFP-L-TOG2-S (EGFP-tagged TOG2 domain and serine-arginine-rich region of human CLASP2α) (domain or fragment)”, the results for the mean dwell time in assay [1] and in assay [2] were 0.53 s and 3.8 s, respectively.
